These results are taken from patent publication US20240010720A1 (IOMX THERAPEUTICS, published 2024).

Assay [1] concerns the target T1, Streptavidin (UniProt P22629 37-163, limits assumed).
T1 construct: also called negative antigen; irrelevant antigen
Put plainly: ELISA, scFv. In general terms: In an ELISA, binding on a coated surface is turned into a signal by an enzyme label.

Assay [2] concerns the target T2, human IGSF11 (VSIG3) on cells (human, UniProt Q5DX21 23-431).
T2 sequence: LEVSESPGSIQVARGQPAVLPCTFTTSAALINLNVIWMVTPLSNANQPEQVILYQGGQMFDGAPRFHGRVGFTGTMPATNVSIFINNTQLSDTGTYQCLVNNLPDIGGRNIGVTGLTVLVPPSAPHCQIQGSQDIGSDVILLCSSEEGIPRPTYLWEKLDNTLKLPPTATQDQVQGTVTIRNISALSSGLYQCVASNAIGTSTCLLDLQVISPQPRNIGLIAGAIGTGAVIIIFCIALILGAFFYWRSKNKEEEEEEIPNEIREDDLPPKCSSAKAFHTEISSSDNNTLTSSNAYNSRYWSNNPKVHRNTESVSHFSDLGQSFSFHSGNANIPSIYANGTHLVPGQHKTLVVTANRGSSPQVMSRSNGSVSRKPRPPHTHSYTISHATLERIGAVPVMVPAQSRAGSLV
Briefly: FACS % positive cells, scFv.

For assay [3], the target named is T1, Streptavidin. Briefly: ELISA, Fab.
Protocol: (§1) In order to identify IGSF11-specific binding ABPs, monoclonal Fabs expressed from E. coli were generated from the enriched set of anti-IGFS11 antibody-expressing phage. After bacterial lysis, the Fabs were tested for their binding properties and cross-reactivity profile on recombinant ECD-IGSF11 (human, mouse and cynomolgus monkey) by standard ELISA. Briefly, biotinylated recombinant ECD-IGSF11 from human, mouse, or cynomolgus monkey were immobilized at 2 ug/mL on a streptavidin-coated 384-well Maxisorp plate. The surface was blocked with 2% (w/v) skim milk powder in PBST. After three wash cycles with PBST, a bacterial lysate of each of the anti-IGSF11 Fabs in 2% (w/v) skim milk powder was applied to the immobilized IGSF11 and incubated for 1 h. After removing all unbound Fab by 3 wash cycles with PBST, bound Fab antibodies were detected with a goat anti-human Fab antibody conjugated with horseradish peroxidase. After three wash cycles with PBST the ELISA was developed with TMB substrate.
The target in assay [4] is T3, recombinant murine IGSF11 extracellular domain (ECD) (mouse, UniProt P0C673 23-240, biotinylated).
T3 construct: also called Mouse IGSF11; murine ECD-IGSF11
T3 sequence: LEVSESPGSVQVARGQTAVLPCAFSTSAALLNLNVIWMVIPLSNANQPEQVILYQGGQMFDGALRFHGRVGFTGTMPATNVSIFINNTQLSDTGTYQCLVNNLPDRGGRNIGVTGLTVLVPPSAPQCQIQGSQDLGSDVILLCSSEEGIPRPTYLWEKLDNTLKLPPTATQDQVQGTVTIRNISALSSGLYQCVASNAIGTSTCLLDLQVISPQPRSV
Put plainly: ELISA, Fab.
Protocol: as §1

Residue numbers refer to the chain shown, from its start.

T1 sequence (P22629 37-163 limits assumed): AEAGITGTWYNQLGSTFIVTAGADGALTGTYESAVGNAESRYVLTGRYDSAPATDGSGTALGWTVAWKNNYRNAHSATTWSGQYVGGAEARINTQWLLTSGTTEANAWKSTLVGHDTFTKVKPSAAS

B1: A-014 (scFv format) (scFv, V domains shown)
VH: QVQLVQSGAEVKKPGASVKVSCKASGYTFNDYYIHWVRQAPGQGLEWMGWFNPSTGGANYAQKFQGRVTMTRDTSISTAYLEVSSLRSDDTAVYYCARGNSPDLDYWGQGTLVTVSS
VL: DIQMTQSPDSLTVSLGERATINCKSSQSLLHSSNNKNYLAWYQQRPGQPPKLLIYWASTRQSGVPDRFSGSGSGTDFTLTINSLQADDMAVYYCQQYYTTTPNTFGQGTKLEIK
notes: scFv
Consider B1, for which the binding result in the assay with Streptavidin [1] is “no binding (tested: <0.025 or <0.05 RFU)”; in assay [2] it was “binds”.

B2: C-005 (Fab format) (Fab, V domains shown)
VH: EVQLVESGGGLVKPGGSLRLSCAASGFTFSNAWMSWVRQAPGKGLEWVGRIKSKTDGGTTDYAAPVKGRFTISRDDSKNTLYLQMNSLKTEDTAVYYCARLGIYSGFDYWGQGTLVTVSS
VL: SYELTQPPSVSVSPGQTASITCSGDKLGDKYASWYQQKPGQSPVLVIYQDSKRPSGIPERFSGSNSGNTATLTISGTQAEDEADYYCHSYTGKPSQVVFGGGTKLTVL
notes: Fab in E. coli lysate
B2 showed an A450 in the assay with Streptavidin [3] of under 0.1.

B3: C-009 (Fab format) (Fab, V domains shown)
VH: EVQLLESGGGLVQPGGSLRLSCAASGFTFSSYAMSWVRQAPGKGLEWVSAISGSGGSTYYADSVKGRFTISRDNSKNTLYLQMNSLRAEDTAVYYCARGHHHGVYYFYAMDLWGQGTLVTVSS
VL: B2 VL with H88Q, T91S, K93S, P94S, S95T, Q96L, V97H
notes: Fab in E. coli lysate
Consider B3, for which the A450 in the assay with Streptavidin [3] was under 0.1.

B4: C-015 (Fab format) (Fab, V domains shown)
VH: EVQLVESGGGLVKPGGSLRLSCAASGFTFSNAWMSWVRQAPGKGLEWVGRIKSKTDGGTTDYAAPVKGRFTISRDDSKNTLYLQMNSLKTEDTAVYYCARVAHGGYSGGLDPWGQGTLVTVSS
VL: B2 VL with H88S, Y90T, T91G, G92T, K93A, P94H, S95T, Q96L, V97A
notes: Fab in E. coli lysate
Regarding B4, the A450 in assay [4] is under 1; with Streptavidin [3] it was under 0.1.

B5: C-024 (Fab format) (Fab, V domains shown)
VH: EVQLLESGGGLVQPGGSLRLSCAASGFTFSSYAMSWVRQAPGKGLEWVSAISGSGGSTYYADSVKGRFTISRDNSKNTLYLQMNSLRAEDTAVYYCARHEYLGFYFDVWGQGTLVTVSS
VL: B2 VL with H88L, S89A, Y90S, T91H, G92R, K93L, P94T, S95L, Q96N, V97Y
notes: Fab in E. coli lysate
With B5, the A450 in assay [4] is under 1.

B6: C-023 (Fab format) (Fab, V domains shown)
VH: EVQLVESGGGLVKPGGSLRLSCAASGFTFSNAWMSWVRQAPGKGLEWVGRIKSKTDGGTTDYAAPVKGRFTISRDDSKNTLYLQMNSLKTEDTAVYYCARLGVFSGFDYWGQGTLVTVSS
VL: B2 VL with S89T, Y90W, G92H, K93H, P94S, S95L, Q96A
notes: Fab in E. coli lysate
Take B6: the A450 in assay [4] was under 1; with Streptavidin [3], under 0.1.

B7: C-020 (Fab format) (Fab, V domains shown)
VH: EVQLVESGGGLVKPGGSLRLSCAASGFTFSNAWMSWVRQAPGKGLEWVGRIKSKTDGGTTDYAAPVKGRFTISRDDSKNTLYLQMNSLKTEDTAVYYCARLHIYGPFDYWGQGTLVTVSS
VL: B2 VL with H88L, T91L, G92A, K93R, P94S, S95G, Q96S
notes: Fab in E. coli lysate
For B7, the A450 in assay [4] was under 1.

B8: A-021 (scFv format) (scFv, V domains shown)
VH: QVQLVQSGAEVKKPGASVKVSCKASGYTFTSYGISWVRQAPGQGLEWMGWISAYNGNTNYAQKLQGRVTMTTDTSTSTAYMELRSLRSDDTAVYYCARVPAWSGQFDYWGQGTLVTVSS
VL: QSALTQPASVSGSPGQSITISCTGTSSDVGGYNYVSWYQQHPGKAPKLMIYEVTNRPSGVSDRFSGSKSANTASLTISELQAEDEAVYYCNSYTSGPTYVLFGGGTQLTVL
notes: scFv
As for B8, the binding result is reported as “no binding (tested: <0.025 or <0.05 RFU)” in the assay with Streptavidin [1] and “binds” in assay [2].

B9: A-031 (scFv format) (scFv, V domains shown)
VH: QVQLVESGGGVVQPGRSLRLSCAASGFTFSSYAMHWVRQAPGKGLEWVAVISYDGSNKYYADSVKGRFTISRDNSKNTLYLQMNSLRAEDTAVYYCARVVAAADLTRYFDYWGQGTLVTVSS
VL: EIVLTQSPGTVSLSPGERATLSCRASQSVPKNYLAWFQQKPGQAPRLVIHTASSRAPGIPDRFTGSGSGTDFTLTISRLEPEDFAVYYCQQYGTSPNTFGQGTKLDIK
notes: scFv
On to B9, for which the binding result in the assay with Streptavidin [1] was “no binding (tested: <0.025 or <0.05 RFU)”; in assay [2], “binds”.

B10: A-030 (scFv format) (scFv, V domains shown)
VH: QVQLVQSGAEVKKPGASVKVSCKASGYTFTGYYMHWVRQAPGQGLEWMGWINPNSGNTGYAQKFQGRVTMTRNTSISTAYMELSSLRSEDTAVYYCARGGQQQLVLDDYWGQGTLVTVSS
VL: DIQLTQSPSTLSASVGDRVTITCRASQSIGGWLAWYQHKPGKAPKLLIYAASSLQSGVPSRFSGSGSGTDFTLTISSLQPEDFATYYCRQSYSTPPTFGQGTKVEIK
notes: scFv
Turning to B10, the binding result with Streptavidin [1] is “no binding (tested: <0.025 or <0.05 RFU)”; in assay [2] it was “binds”.

B11: A-032 (scFv format) (scFv, V domains shown)
VH: B10 VH with I51M
VL: not shown
As for B11, the binding result in the assay with Streptavidin [1] is on record as “no binding (tested: <0.025 or <0.05 RFU)”; in assay [2] it was “binds”.

B12: A-017 (scFv format) (scFv, V domains shown)
VH: B10 VH
VL: DIVLTQSPASLSASVGDRITITCQASQDIRHHLNWFQHKPGKAPKLLISDSSNLETGVPSRFSGSGSGTDFSFTISRLQPEDIATYYCQQYDSLPRTFGQGTKLEIK
notes: scFv
Take B12: the figures for the binding result (with Streptavidin [1]; in assay [2]) were “no binding (tested: <0.025 or <0.05 RFU)” and “binds”, respectively.

B13: A-019 (scFv format) (scFv, V domains shown)
VH: B10 VH
VL: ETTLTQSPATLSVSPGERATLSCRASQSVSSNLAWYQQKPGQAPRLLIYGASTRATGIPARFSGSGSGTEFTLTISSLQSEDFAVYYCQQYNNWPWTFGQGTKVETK
notes: scFv
On to B13, for which the binding result in the assay with Streptavidin [1] was “no binding (tested: <0.025 or <0.05 RFU)”; in assay [2], “binds”.

B14: A-037 (scFv format) (scFv, V domains shown)
VH: B10 VH
VL: NFMLTQPHSVSESPGKTVTISCTGSSGSIASNYVQWYQQRPGSAPTTVIYEDNQRPSGVPDRFSGSIDSSSNSASLTISGLKTEDEADYYCQSYDSSNQRVFGGGTKLTVL
notes: scFv
As for B14, the results for the binding result (in the assay with Streptavidin [1]; in assay [2]) were “no binding (tested: <0.025 or <0.05 RFU)” and “binds”, respectively.

B15: A-036 (scFv format) (scFv, V domains shown)
VH: B10 VH with N57G, G59N
VL: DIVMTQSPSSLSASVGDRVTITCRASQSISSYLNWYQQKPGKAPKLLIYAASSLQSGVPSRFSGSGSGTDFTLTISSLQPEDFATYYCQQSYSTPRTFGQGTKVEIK
notes: scFv
For the molecule B15, the binding result with Streptavidin [1] is listed as “no binding (tested: <0.025 or <0.05 RFU)”; in assay [2], “binds”.

B16: C-008 (Fab format) (Fab, V domains shown)
VH: EVQLLESGGGLVQPGGSLRLSCAASGFTFSSYAMSWVRQAPGKGLEWVSAISGSGGSTYYADSVKGRFTISRDNSKNTLYLQMNSLRAEDTAVYYCTTDNGHNRDWGQGTLVTVSS
VL: ASVLTQPPSVSAAPGQKVTISCSGSSSNIGNNYVSWYQQLPGTAPKLLIYDNNKRPSGIPDRFSGSKSGTSATLGITGLQAEDEADYYCGTWTRSSGVFGGGTKLTVL
notes: Fab in E. coli lysate
Take B16: the A450 with Streptavidin [3] is under 0.1.

B17: C-017 (Fab format) (Fab, V domains shown)
VH: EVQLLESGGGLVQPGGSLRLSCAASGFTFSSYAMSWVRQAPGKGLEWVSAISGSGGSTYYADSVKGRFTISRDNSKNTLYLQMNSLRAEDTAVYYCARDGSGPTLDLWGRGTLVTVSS
VL: DIQMTQSPSSLSASVGDRVTITCRASQSISSYLNWYQQKPGKAPKLLIYAASSLQSGVPSRFSGSGSGTDFTLTISSLQPEDFATYYCQQHRYIPPWTFGQGTKVEIK
notes: Fab in E. coli lysate
Take B17: the A450 in assay [4] was under 1.

B18: C-007 (Fab format) (Fab, V domains shown)
VH: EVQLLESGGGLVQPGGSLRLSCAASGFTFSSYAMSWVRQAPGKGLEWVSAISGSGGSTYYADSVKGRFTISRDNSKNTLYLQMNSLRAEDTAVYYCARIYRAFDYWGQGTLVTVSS
VL: ASVLTQPPSVSAAPGQKVTISCSGSSSNIGNNYVSWYQQLPGTAPKLLIYDNNKRPSGIPDRFSGSKSGTSATLGITGLQAEDEADYYCQLYEEEHSTWVFGGGTKLTVL
notes: Fab in E. coli lysate
In the assay with Streptavidin [3], B18 registered an A450 of under 0.1.

B19: C-026 (Fab format) (Fab, V domains shown)
VH: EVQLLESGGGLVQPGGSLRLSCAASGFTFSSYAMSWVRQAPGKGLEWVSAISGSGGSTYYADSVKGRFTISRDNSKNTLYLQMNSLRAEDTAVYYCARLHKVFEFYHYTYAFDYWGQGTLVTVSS
VL: B18 VL with Q90A, L91S, E93S, E94S, H96T, T98G
notes: Fab in E. coli lysate
With B19, in the assay with Streptavidin [3], the A450 is under 0.1.

B20: C-002 (Fab format) (Fab, V domains shown)
VH: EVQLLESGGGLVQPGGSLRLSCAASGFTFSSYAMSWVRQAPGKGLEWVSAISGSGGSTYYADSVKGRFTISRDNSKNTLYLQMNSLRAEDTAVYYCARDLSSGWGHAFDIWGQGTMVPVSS
VL: B18 VL with Q90L, L91S, E93T, E94T, E95S, H96E, S97H, T98H, W99L
notes: Fab in E. coli lysate
As for B20, the results for the A450 (in assay [4]; with Streptavidin [3]) were under 1 and under 0.1, respectively.

B21: C-016 (Fab format) (Fab, V domains shown)
VH: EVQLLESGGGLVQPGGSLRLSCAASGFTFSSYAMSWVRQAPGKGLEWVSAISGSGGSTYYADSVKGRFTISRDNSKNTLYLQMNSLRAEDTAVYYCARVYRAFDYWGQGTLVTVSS
VL: B18 VL with Q90H, E93T, E95A, H96E, T98H
notes: Fab in E. coli lysate
Take B21: the figures for the A450 (in assay [4]; with Streptavidin [3]) were under 1 and under 0.1, respectively.

B22: C-001 (Fab format) (Fab, V domains shown)
VH: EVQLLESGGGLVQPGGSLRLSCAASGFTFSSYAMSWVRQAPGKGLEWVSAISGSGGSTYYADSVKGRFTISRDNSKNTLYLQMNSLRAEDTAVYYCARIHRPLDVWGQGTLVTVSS
VL: B18 VL with Q90G, L91S, Y92W, E93L, H96R, T98Q, W99Y
notes: Fab in E. coli lysate
The molecule B22 yielded an A450 with Streptavidin [3] of under 0.1.

B23: C-021 (Fab format) (Fab, V domains shown)
VH: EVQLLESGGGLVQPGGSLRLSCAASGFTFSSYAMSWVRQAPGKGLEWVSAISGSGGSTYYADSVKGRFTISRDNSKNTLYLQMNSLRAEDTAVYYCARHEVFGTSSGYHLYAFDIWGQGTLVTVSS
VL: DIQMTQSPSSLSASVGDRVTITCRASQSISSYLNWYQQKPGKAPKLLIYAASSLQSGVPSRFSGSGSGTDFTLTISSLQPEDFATYYCQQWSGLPLTFGQGTKVEIK
notes: Fab in E. coli lysate
Take B23: the A450 in assay [4] was under 1; in the assay with Streptavidin [3], under 0.1.

B24: C-022 (Fab format) (Fab, V domains shown)
VH: EVQLLESGGGLVQPGGSLRLSCAASGFTFSSYAMSWVRQAPGKGLEWVSAISGSGGSTYYADSVKGRFTISRDNSKNTLYLQMNSLRAEDTAAYYCARMAAGASWGTFDYWSQGTLVTVSS
VL: B23 VL with W91R, L94S
notes: Fab in E. coli lysate
B24 returned an A450 with Streptavidin [3] of under 0.1.
